{
  "source": "paper PMC7870875",
  "about": "(Scientific Reports, 2021)",
  "binders": {"B1": {"name": "intimin-Nanobody fusion of clone W23 (bacterial display) (VHH)", "VHH": "QVQLVESGGGLVQPGESLRLSCAASGNIFGIAAVHWFRKAPGKEREFTAGFGSDGSTNYANSVKGRFTISRDNAKNTTYLQMNSLKPEDTAVYYCHALIKNELGFLDYWGPGTQVTVSS", "notes": "also called clone W23 total protein extract"}},
  "key": {"[1]": {"molecular_target": "T1, full-length Spike protein of SARS-CoV-2 (SARS-CoV-2 (Wuhan-Hu-1 reference; …, UniProt P0DTC2)", "T1 construct": "source: bought: SINOBiological; produced in a baculovirus expression system", "assay": "far-Western, overlay or dot blot", "settings": "one partner purified"}, "Spike-GFP": {"molecular_target": "T2, Spike-GFP (SARS-CoV-2 (Wuhan-Hu-1 reference; …, UniProt P0DTC2)", "T2 construct": "also called S-GFP", "assay": "immunostaining of cells or tissue", "settings": "partners not purified"}},
  "data": [
    {"binder": "B1", "values": [
      {"measurement": "binding result", "setting": "[1]", "result": "binds"},
      {"measurement": "binding result", "setting": "Spike-GFP", "result": "binds"}
    ]}
  ]
}
